Reference: US20050065081A1, “Tyrosine kinase inhibitors” (priority 2002, published 2005)

B1: Abl P82-K531: mutant lacking the last exon region and the N-terminal amino acids preceding the SH3 domain (protein, UniProt P00519 82-531, looked up, fragment)
chain: ITKGEKLRVLGYNHNGEWCEAQTKNGQGWVPSNYITPVNSLEKHSWYHGPVSRNAAEYLLSSGINGSFLVRESESSPGQRSISLRYEGRVYHYRINTASDGKLYVSSESRFNTLAELVHHHSTVADGLITTLHYPAPKRNKPTVYGVSPNYDKWEMERTDITMKHKLGGGQYGEVYEGVWKKYSLTVAVKTLKEDTMEVEEFLKEAAVMKEIKHPNLVQLLGVCTREPPFYIITEFMTYGNLLDYLRECNRQEVNAVVLLYMATQISSAMEYLEKKNFIHRDLAARNCLVGENHLVKVADFGLSRLMTGDTYTAHAGAKFPIKWTAPESLAYNKFSIKSDVWAFGVLLWEIATYGMSPYPGIDLSQVYELLEKDYRMERPEGCPEKVYELMRACWQWNPSDRPSFAEIHQAFETMFQESSISDEVEKELGKQGVRGAVSTLLQAPELPTK
modifications: isoform 1B
notes: mutant lacking the last exon region and the N-terminal amino acids preceding the SH3 domain

System: GST-Jun
Experiment: Abl in vitro kinase assay of immunoprecipitated Abl proteins, GST-Jun as substrate
Type: biochemical
Details: expressed in HEK293 cells, relative to Abl M1-K531
Description: C. Abl protein was immunoprecipitated from total cell extract using anti-Abl antibodies, blotted to nitrocellulose and probed with anti-Abl and anti-phosphotyrosine antibodies (left panels). Abl immunoprecipitates were assayed for catalytic activity by in vitro kinase assay using GST-Jun as substrate.
The catalytic activity of purified Abl protein bound to protein G-Sepharose beads was determined as follows. Beads were washed three times with IP buffer, two times with IP buffer without NaCl and two times with kinase assay buffer (20 mM Tris-HCl pH 7.5, 10 mM MgCl2, 1 mM DTT). Twenty μl linase assay mix (1 μg GST-Crk121-226 (Dorey et al., 1999), 0.5 μl [γ-^32P]-ATP (Amersham), 0.1 mM ATP in kinase assay buffer) was added and the mixture was incubated at room temperature for 10 and 20 minutes. The kinase reaction was stopped by adding SDS-sample buffer and analyzed by SDS-PAGE. Quantification of the reaction was done by cutting the desired bands from gel followed by liquid scintillation counting and/or phosphoimager analysis. For the in vitro inhibition of Abl, GST or GST 1b+2 protein were bacterially expressed, purified and dialysed against kinase assay buffer. Equal quantities of purified proteins were added directly to the kinase assay mixture, samples were incubated for 2 hours at 4° C. and then assayed as above.

| Molecule | Catalytic activity and tyrosine phosphorylation (in words) |
| --- | --- |
| Abl M1-K531: deletion mutant lacking the last exon region of c-Abl | did not lead to activation |
| B1 | highly active in vitro |
